In US11542515B2, “Methods and compositions for increasing efficiency of targeted gene modification using oligonucleotide-mediated gene repair” (CIBUS US LLC, priority 2016, dated 2023):
d = 2'-deoxy (DNA); m = 2'-O-methyl

Tested on: EPSPS 2-25 gene
Test: EPSPS precise edits by Cas9 RNP plus GRON in leaf protoplasts (deep sequencing)
Format: cell-based, Brassica napus
Conditions: with Cas9 protein complexed with BnEPSPS gRNA-1, three weeks, three independent experiments
Procedure: Brassica napus protoplasts derived from leaves of in vitro propagated nodal cuttings were seeded in a 50 ml centrifuge tube at 2,000,000 cells per tube and at a cell density of 5×10^6 cells/ml. CRISPR-Cas9 targeting the EPSPS 2-25 gene along with GRON was delivered as a ribonucleoprotein complex using the PEG method or by alternative delivery methods such as by electroporation, cell-penetrating peptides and/or lipid based delivery techniques. Protoplasts were incubated in the dark at 25° C. for three weeks, and then analyzed deep sequencing in order to determine the percentage of precise EPSPS edits and frequency of indels within a given treatment.
The CRISPR-Cas9 consists of two components: the Streptococcus pyogenes Cas9 (SpCas9) and sgRNA which form the RNP CRISPR-Cas9 complex when mixed. The sgRNA is a fusion of CRISPR RNA (crRNA) and trans-activating crRNA (tracrRNA). The crRNA region contains the spacer sequence used to guide the Cas9 nuclease to the EPSPS target gene. In these experiments RNP CRISPR-Cas9 is used to target the EPSPS 2-25 gene. The GRON contains the coding sequence of the EPSPS gene near the site of conversion as well as nucleotide alterations to produce the desired changes to the EPSPS gene.

B1: 2′OMe; BnEPSPS-2-25/NC 101-mer: 101-mer 2OMe GRON targeting Brassica napus EPSPS 2-25, SEQ ID NO: 336 (nucleic acid)
chain: UTACCTTGCGTTGCCACCTGCAGCAGTAACTGCAGCGGTAAGTGTACGCATCGCTATTCCAGCATTCCCAAGGTACAACTCGATATCACTCTTGGAATCTA
modifications: sugars from the 5' end m1 d100, backbone and methylation of C not given here
- gene editing in the targeted epsps gene(s): 0.07-0.125%
